Measured values as given in paper PMC10636324 (Proceedings of the National Academy of Sciences of the …, 2023).

molecular target: T1, FAM91A1^N (N terminus of FAM91A1, residues 1-328), wild type (UniProt Q658Y4 1-328); assay: pull-down
T1 sequence (looked up): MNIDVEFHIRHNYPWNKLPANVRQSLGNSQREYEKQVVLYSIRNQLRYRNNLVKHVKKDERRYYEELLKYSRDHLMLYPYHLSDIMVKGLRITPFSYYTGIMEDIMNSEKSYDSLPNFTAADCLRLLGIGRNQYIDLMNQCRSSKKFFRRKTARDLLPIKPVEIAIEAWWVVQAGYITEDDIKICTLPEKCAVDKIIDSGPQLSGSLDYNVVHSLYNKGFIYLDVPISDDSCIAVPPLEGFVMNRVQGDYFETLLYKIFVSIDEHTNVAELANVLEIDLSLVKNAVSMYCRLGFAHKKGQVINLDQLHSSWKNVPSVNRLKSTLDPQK

Binder | binding result
TPVDRHVSSSDRVGKPYRGVKPVLSIGDEEEYDTDEIDSSSMSDD (domain or fragment, human, UniProt Q9NUY8-2 514-558, looked up) [GST-TBC1D23^514-558 F537L] | binds
TPVDRHVSSSDRVGKPYCGVKPVFSIGDEEEYDTDEIDSSSMSDD (domain or fragment, human, UniProt Q9NUY8-2 514-558, looked up) [GST-TBC1D23^514-558 R531C] | binds
TPVDRHVSSSDRVGKPYHGVKPVFSIGDEEEYDTDEIDSSSMSDD (domain or fragment, human, UniProt Q9NUY8-2 514-558, looked up) [GST-TBC1D23^514-558 R531H] | binds
TPVDRHVSSSDRVGKPYRGVNPVFSIGDEEEYDTDEIDSSSMSDD (domain or fragment, human, UniProt Q9NUY8-2 514-558, looked up) [GST-TBC1D23^514-558 K534N] | binds
TPVDQHVSSSDRVGKPYRGVKPVFSIGDEEEYDTDEIDSSSMSDD (domain or fragment, human, UniProt Q9NUY8-2 514-558, looked up) [GST-TBC1D23^514-558 R518Q] | binds
APVDRHVSSSDRVGKPYRGVKPVFSIGDEEEYDTDEIDSSSMSDD (domain or fragment, human, UniProt Q9NUY8-2 514-558, looked up) [GST-TBC1D23^514-558 T514A] | binds
TPVDRHVSSSDRVGKPYRGVKPVFSIGDEEEYDTDEIDSSSMSDD (domain or fragment, human, UniProt Q9NUY8-2 514-558, looked up) [GST-TBC1D23^514-558 wild type] | binds
TPVDRHVSSSDRVGKAYRGVKPVFSIGDEEEYDTDEIDSSSMSDD (domain or fragment, human, UniProt Q9NUY8-2 514-558, looked up) [GST-TBC1D23^514-558 P529A] | binds
TPVDRHVSSSDRVGKPYRGIKPVFSIGDEEEYDTDEIDSSSMSDD (domain or fragment, human, UniProt Q9NUY8-2 514-558, looked up) [GST-TBC1D23^514-558 V533I] | binds

molecular target: T1, FAM91A1^N (N terminus of FAM91A1, …); assay: ITC

Binder | Kd [nM] | affinity as percent of that of WT [%]
TPVDRHVSSSDRVGKPYRGVKPVFS (peptide, UniProt Q9NUY8-2 514-538, looked up) [TBC1D23^514-538 wild type] | 1150 ± 160 | –
TPVDRHVSSSDRVGKPYCGVKPVFS (peptide, UniProt Q9NUY8-2 514-538, looked up) [TBC1D23^514-538 R531C] | – | ~6.6
TPVDRHVSSSDRVGKPYHGVKPVFS (peptide, UniProt Q9NUY8-2 514-538, looked up) [TBC1D23^514-538 R531H] | – | ~7.9
TPVDRHVSSSDRVGKPYRGVKPVLS (peptide, UniProt Q9NUY8-2 514-538, looked up) [TBC1D23^514-538 F537L] | – | ~16.4
